The data set “cross-linking” concerns the molecule itself. Nature of the data set: cross-linking.
The data set “GTP hydrolysis assay” deals with the molecule itself. Nature of the data set: GTP hydrolysis assay.
Data set [1] concerns the molecule itself. Nature of the data set: light scattering-based polymerization assay.

The values that follow come from publication doi:10.1101/2023.08.01.551421 (bioRxiv, 2023).

B1: GBP1 Δ207-213 variant, non-farnesylated (natural protein)
chain: MASEIHMTGPMCLIENTNGRLMANPEALKILSAITQPMVVVAIVGLYRTGKSYLMNKLAGKKKGFSLGSTVQSHTKGIWMWCVPHPKKPGHILVLLDTEGLGDVEKGDNQNDSWIFALAVLLSSTFVYNSIGTINQQAMDQLYYVTELTHRIRSKSSPDENENEVEDSADFVSFFPDFVWTLRDFSLDLEADGQPLTPDEYLTYSLGGGSGGGSQKDETFNLPRLCIRKFFPKKKCFVFDRPVHRRKLAQLEKLQDEELDPEFVQQVADFCSYIFSNSKTKTLSGGIQVNGPRLESLVLTYVNAISSGDLPCMENAVLALAQIENSAAVQKAIAHYEQQMGQKVQLPTETLQELLDLHRDSEREAIEVFIRSSFKDVDHLFQKELAAQLEKKRDDFCKQNQEASSDRCSALLQVIFSPLEEEVKAGIYSKPGGYRLFVQKLQDLKKKYYEEPRKGIQAEEILQTYLKSKESMTDAILQTDQTLTEKEKEIEVERVKAESAQASAKMLQEMQRKNEQMMEQKERSYQEHLKQLTEKMENDRVQLLKEQERTLALKLQEQEQLLKEGFQKESRIMKNEIQDLQTKMRRRKACTIS
As to B1, the “stoichiometry N” value in the data set “cross-linking” turned out to be 2. The “fold lower dimerization affinity than wild-type” value in “GTP hydrolysis assay” stood at 3 fold.

B2: GBP1 Δ207-213 variant, farnesylated (natural protein)
chain: MASEIHMTGPMCLIENTNGRLMANPEALKILSAITQPMVVVAIVGLYRTGKSYLMNKLAGKKKGFSLGSTVQSHTKGIWMWCVPHPKKPGHILVLLDTEGLGDVEKGDNQNDSWIFALAVLLSSTFVYNSIGTINQQAMDQLYYVTELTHRIRSKSSPDENENEVEDSADFVSFFPDFVWTLRDFSLDLEADGQPLTPDEYLTYSLGGGSGGGSQKDETFNLPRLCIRKFFPKKKCFVFDRPVHRRKLAQLEKLQDEELDPEFVQQVADFCSYIFSNSKTKTLSGGIQVNGPRLESLVLTYVNAISSGDLPCMENAVLALAQIENSAAVQKAIAHYEQQMGQKVQLPTETLQELLDLHRDSEREAIEVFIRSSFKDVDHLFQKELAAQLEKKRDDFCKQNQEASSDRCSALLQVIFSPLEEEVKAGIYSKPGGYRLFVQKLQDLKKKYYEEPRKGIQAEEILQTYLKSKESMTDAILQTDQTLTEKEKEIEVERVKAESAQASAKMLQEMQRKNEQMMEQKERSYQEHLKQLTEKMENDRVQLLKEQERTLALKLQEQEQLLKEGFQKESRIMKNEIQDLQTKMRRRKACTIS
modifications: farnesyl moiety, C-terminal (CaaX box motif)
On to B2, for which the binding result in data set [1] is given as “binds”.

B3: GBP1 D199K, non-farnesylated (natural protein)
chain: MASEIHMTGPMCLIENTNGRLMANPEALKILSAITQPMVVVAIVGLYRTGKSYLMNKLAGKKKGFSLGSTVQSHTKGIWMWCVPHPKKPGHILVLLDTEGLGDVEKGDNQNDSWIFALAVLLSSTFVYNSIGTINQQAMDQLYYVTELTHRIRSKSSPDENENEVEDSADFVSFFPDFVWTLRDFSLDLEADGQPLTPKEYLTYSLKLKKGTSQKDETFNLPRLCIRKFFPKKKCFVFDRPVHRRKLAQLEKLQDEELDPEFVQQVADFCSYIFSNSKTKTLSGGIQVNGPRLESLVLTYVNAISSGDLPCMENAVLALAQIENSAAVQKAIAHYEQQMGQKVQLPTETLQELLDLHRDSEREAIEVFIRSSFKDVDHLFQKELAAQLEKKRDDFCKQNQEASSDRCSALLQVIFSPLEEEVKAGIYSKPGGYRLFVQKLQDLKKKYYEEPRKGIQAEEILQTYLKSKESMTDAILQTDQTLTEKEKEIEVERVKAESAQASAKMLQEMQRKNEQMMEQKERSYQEHLKQLTEKMENDRVQLLKEQERTLALKLQEQEQLLKEGFQKESRIMKNEIQDLQTKMRRRKACTIS
For B3, the binding result in “cross-linking” is on record as “binds”.

B4: GBP1 D199K, farnesylated (natural protein)
chain: MASEIHMTGPMCLIENTNGRLMANPEALKILSAITQPMVVVAIVGLYRTGKSYLMNKLAGKKKGFSLGSTVQSHTKGIWMWCVPHPKKPGHILVLLDTEGLGDVEKGDNQNDSWIFALAVLLSSTFVYNSIGTINQQAMDQLYYVTELTHRIRSKSSPDENENEVEDSADFVSFFPDFVWTLRDFSLDLEADGQPLTPKEYLTYSLKLKKGTSQKDETFNLPRLCIRKFFPKKKCFVFDRPVHRRKLAQLEKLQDEELDPEFVQQVADFCSYIFSNSKTKTLSGGIQVNGPRLESLVLTYVNAISSGDLPCMENAVLALAQIENSAAVQKAIAHYEQQMGQKVQLPTETLQELLDLHRDSEREAIEVFIRSSFKDVDHLFQKELAAQLEKKRDDFCKQNQEASSDRCSALLQVIFSPLEEEVKAGIYSKPGGYRLFVQKLQDLKKKYYEEPRKGIQAEEILQTYLKSKESMTDAILQTDQTLTEKEKEIEVERVKAESAQASAKMLQEMQRKNEQMMEQKERSYQEHLKQLTEKMENDRVQLLKEQERTLALKLQEQEQLLKEGFQKESRIMKNEIQDLQTKMRRRKACTIS
modifications: farnesyl moiety, C-terminal (CaaX box motif)
Consider B4, for which, in “cross-linking”, the binding result was “binds”.

B5: GBP1 D199A, non-farnesylated (natural protein)
chain: MASEIHMTGPMCLIENTNGRLMANPEALKILSAITQPMVVVAIVGLYRTGKSYLMNKLAGKKKGFSLGSTVQSHTKGIWMWCVPHPKKPGHILVLLDTEGLGDVEKGDNQNDSWIFALAVLLSSTFVYNSIGTINQQAMDQLYYVTELTHRIRSKSSPDENENEVEDSADFVSFFPDFVWTLRDFSLDLEADGQPLTPAEYLTYSLKLKKGTSQKDETFNLPRLCIRKFFPKKKCFVFDRPVHRRKLAQLEKLQDEELDPEFVQQVADFCSYIFSNSKTKTLSGGIQVNGPRLESLVLTYVNAISSGDLPCMENAVLALAQIENSAAVQKAIAHYEQQMGQKVQLPTETLQELLDLHRDSEREAIEVFIRSSFKDVDHLFQKELAAQLEKKRDDFCKQNQEASSDRCSALLQVIFSPLEEEVKAGIYSKPGGYRLFVQKLQDLKKKYYEEPRKGIQAEEILQTYLKSKESMTDAILQTDQTLTEKEKEIEVERVKAESAQASAKMLQEMQRKNEQMMEQKERSYQEHLKQLTEKMENDRVQLLKEQERTLALKLQEQEQLLKEGFQKESRIMKNEIQDLQTKMRRRKACTIS
In the case of B5, the binding result in the data set “cross-linking” is “binds”.

B6: GBP1 D199A, farnesylated (natural protein)
chain: MASEIHMTGPMCLIENTNGRLMANPEALKILSAITQPMVVVAIVGLYRTGKSYLMNKLAGKKKGFSLGSTVQSHTKGIWMWCVPHPKKPGHILVLLDTEGLGDVEKGDNQNDSWIFALAVLLSSTFVYNSIGTINQQAMDQLYYVTELTHRIRSKSSPDENENEVEDSADFVSFFPDFVWTLRDFSLDLEADGQPLTPAEYLTYSLKLKKGTSQKDETFNLPRLCIRKFFPKKKCFVFDRPVHRRKLAQLEKLQDEELDPEFVQQVADFCSYIFSNSKTKTLSGGIQVNGPRLESLVLTYVNAISSGDLPCMENAVLALAQIENSAAVQKAIAHYEQQMGQKVQLPTETLQELLDLHRDSEREAIEVFIRSSFKDVDHLFQKELAAQLEKKRDDFCKQNQEASSDRCSALLQVIFSPLEEEVKAGIYSKPGGYRLFVQKLQDLKKKYYEEPRKGIQAEEILQTYLKSKESMTDAILQTDQTLTEKEKEIEVERVKAESAQASAKMLQEMQRKNEQMMEQKERSYQEHLKQLTEKMENDRVQLLKEQERTLALKLQEQEQLLKEGFQKESRIMKNEIQDLQTKMRRRKACTIS
modifications: farnesyl moiety, C-terminal (CaaX box motif)
As to B6, in the data set “cross-linking”, the binding result is “binds”.

B7: GBP1 Δ207-216 variant, farnesylated (natural protein)
chain: MASEIHMTGPMCLIENTNGRLMANPEALKILSAITQPMVVVAIVGLYRTGKSYLMNKLAGKKKGFSLGSTVQSHTKGIWMWCVPHPKKPGHILVLLDTEGLGDVEKGDNQNDSWIFALAVLLSSTFVYNSIGTINQQAMDQLYYVTELTHRIRSKSSPDENENEVEDSADFVSFFPDFVWTLRDFSLDLEADGQPLTPDEYLTYSLGGGSETFNLPRLCIRKFFPKKKCFVFDRPVHRRKLAQLEKLQDEELDPEFVQQVADFCSYIFSNSKTKTLSGGIQVNGPRLESLVLTYVNAISSGDLPCMENAVLALAQIENSAAVQKAIAHYEQQMGQKVQLPTETLQELLDLHRDSEREAIEVFIRSSFKDVDHLFQKELAAQLEKKRDDFCKQNQEASSDRCSALLQVIFSPLEEEVKAGIYSKPGGYRLFVQKLQDLKKKYYEEPRKGIQAEEILQTYLKSKESMTDAILQTDQTLTEKEKEIEVERVKAESAQASAKMLQEMQRKNEQMMEQKERSYQEHLKQLTEKMENDRVQLLKEQERTLALKLQEQEQLLKEGFQKESRIMKNEIQDLQTKMRRRKACTIS
modifications: farnesyl moiety, C-terminal (CaaX box motif)
For the protein B7, the binding result in data set [1] was “binds”.

B8: GBP1 Δ207-216 variant, non-farnesylated (natural protein)
chain: MASEIHMTGPMCLIENTNGRLMANPEALKILSAITQPMVVVAIVGLYRTGKSYLMNKLAGKKKGFSLGSTVQSHTKGIWMWCVPHPKKPGHILVLLDTEGLGDVEKGDNQNDSWIFALAVLLSSTFVYNSIGTINQQAMDQLYYVTELTHRIRSKSSPDENENEVEDSADFVSFFPDFVWTLRDFSLDLEADGQPLTPDEYLTYSLGGGSETFNLPRLCIRKFFPKKKCFVFDRPVHRRKLAQLEKLQDEELDPEFVQQVADFCSYIFSNSKTKTLSGGIQVNGPRLESLVLTYVNAISSGDLPCMENAVLALAQIENSAAVQKAIAHYEQQMGQKVQLPTETLQELLDLHRDSEREAIEVFIRSSFKDVDHLFQKELAAQLEKKRDDFCKQNQEASSDRCSALLQVIFSPLEEEVKAGIYSKPGGYRLFVQKLQDLKKKYYEEPRKGIQAEEILQTYLKSKESMTDAILQTDQTLTEKEKEIEVERVKAESAQASAKMLQEMQRKNEQMMEQKERSYQEHLKQLTEKMENDRVQLLKEQERTLALKLQEQEQLLKEGFQKESRIMKNEIQDLQTKMRRRKACTIS
In the case of B8, the “stoichiometry N” value in “cross-linking” amounted to 2. In addition, the “fold lower dimerization affinity than wild-type” value in the data set “GTP hydrolysis assay” stood at 1.8 fold.
